Source: patent US7410801 (UNIVERSITY OF DELHI DEPARTMENT OF BIOCHEMISTRY, dated 2008)

Molecular target: mesothelin (UniProt Q13421 296-598)
Test: ELISA, purified phages added to mesothelin coated wells

Chain of mesothelin (Q13421 other isoform, or with tags, fused parts or gaps limits assumed): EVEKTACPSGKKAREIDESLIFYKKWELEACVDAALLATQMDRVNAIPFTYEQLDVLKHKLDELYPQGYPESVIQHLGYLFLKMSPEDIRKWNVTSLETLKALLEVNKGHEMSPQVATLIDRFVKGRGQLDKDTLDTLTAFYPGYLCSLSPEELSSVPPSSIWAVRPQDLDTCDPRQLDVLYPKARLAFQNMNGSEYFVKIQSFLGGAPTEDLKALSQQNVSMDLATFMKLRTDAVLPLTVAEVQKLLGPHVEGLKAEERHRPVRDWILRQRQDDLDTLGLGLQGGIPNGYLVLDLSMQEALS

B1: D-cmyc fusion protein displayed on lambda phage λDcDL1 (other)
chain (part 1 of 2): MTSKETFTHYQPQGNSDPAHTATAPGGLSAKAPAMTPLMLDTSSRKLVAWDGTTDGAAVGILAVAADQTSTTLTFYKSGTFRYEDVLWPEAASDETKKRTAFAGTAISIV
chain (part 2 of 2): EQKLISEEDL
notes: also called DcDL1 phages
  binding result: no binding
